Reference: the nanobody polyreactivity screen of Harvey et al. (2022)

Assay: yeast display, Sf9 membrane polyspecificity reagent, FACS + sequencing; frameworks hold sequencing errors
Method in brief: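 Genes from sorted yeast were amplified by colony PCR, read by MiSeq 2 × 250 sequencing and filtered on CDR length. These cells carried a synthetic nanobody library in Saccharomyces cerevisiae BJ5465 and were sorted by FACS into low and high (top ~1%) gates on anti-HA and streptavidin fluorescence. Polyreactivity is labelled according to the gate of origin.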

Sequence	polyreactivity (PSR sort gate)
QVQLVESGGGLVQAGGSLRLSCAASGYTFESYTMGWYRQAPGKEREFVAVISSSDTSTSYADSVKGRFTISRDNAKNTFYLQMNSLKPVDTAVYYCAAYSSPYYITYYWYNYDYWGQGTQVTVSS	low polyreactivity
QVQLVESGGGLVQAGGSLRLSCAASGIIFRPYTMGWYRQAPGKERELVAAISQSGGRTYYADSVKGRFTISRDNAKNTVYLQMNSLKPEDTAVYYCNVLGSYSYYPWPIPGYDYWGQGTQVTVSS	high polyreactivity
QVQLVESGGGLVQAGGSLRLSCAASGSTFYYNAMGWYRQAPGKERELVAAITFTGGSTYADSVKGRFSISRDNAKNTVYLQMNSLKPEDTAVYYCAATIQGHDYLGTGYDYWGQGTQVTVSS	low polyreactivity
QVQLVESGGGLVQEGGSLRLSCAASGRTFGYYAMGWYRQAPGKERELVAAITRNGGRTYYADSVKGRFTISRDNAKNTVYLQMNSLKPEDTAVYYCAKDQYKPEAFYYWGQGTQVTVSS	high polyreactivity
QVPLVESGGGLGQAGGSLRLSCGASGSIFSLYAMGWSRLAPGKEREVVASLTWRGDSTYYADSVTGRFTISRDNAKNTVYLQMNSLKPEDTAVYNCNAVYYYAEPTSFGGYDYWGQGTQVTVSS	low polyreactivity
QVQLVESGGGLVQAGGSLRLSCAASGRIFTRNAMRWYRQAPGKEREFVAAISHSGGSTYADSVKGRFTISRDNAKNTVFLQMNSLKPEDTAVFYCAAEWSSLNFDYWGQGTQVTVSS	low polyreactivity
QVQLVESGGGLVQAGGSLRLSCAASGSTFGFYAMGWYRQAPGKERELVAAITGSGGSTYYADSVKGRFTISRDNAKNTVYLQMNSLKPEDTAVYYCNRYGVRYYRYDYWGQGTQVTVSS	high polyreactivity
QVQLVESGAGLVQAGGSLRLSCAASGSTLYRYAMGWYRQAPGKERELVAAISRRGDSTYYADSVKGRFTISRDNAKNTVYLQMNSLKPEDTAVYYCNTARSAGKYDYWGQGTQVTVSS	high polyreactivity
QVQLVESGGGLVQAGGSLRLSCAASGSIFLWYAMGWSRQAPGKERELVAALTYSGGTTYYADSVKGRFTISRDNAKNTVYLQLNSLKPEDTAVYYCAKRTAVWTSGGYRKRDYWGQGTQVTVSS	high polyreactivity
QDQLVESRGALVQAGGSLRLSCAASGIIFGRNAMGWYRQAPRKERELVAGITRRGARTYYADSVKGRFTISRDNAKNTVYFQMNILKPEDTAVYYCAAVGPYRWYDYWGQGTQVTVSS	high polyreactivity
QVQLVESAGGLVQAGGSLRLSCPASGRTFFPYAMGWYRQPPGQEREFVAAITNTDDSTYYADSVKGRFTISRDNAKNTVYLQMNSLKPEDTAVYYCNAGDTQIRFYYWGQGSQVTVSS	low polyreactivity
QVQLVESGGGLVQAGGSLRLSCAASGRISRTNAMGWYRQAPGKERELVATITRGGNTNYADSVKGRFTISRDNAKNTVYLQMNSLKPEDTAVYYCAALGRYLRTYRGYVWQFDSWGQGTQVTVSS	high polyreactivity
QVQLVESGGGLVQAGGTLRLSCAASGRTYYPNTMGWYRQAPGKERELVATITRSGGNTYADSVKGRFTISRDNAKNTVYFQMTSLKPEDTAVYYCAARNGRIAWMNYWGQGTQVTVSS	low polyreactivity
QVQLVESGGGIVQAGGSLRLSCAASGSISVPYGMGWYRPAPGKERELVAAITGGSTYYADSVKGRFTISRDNAKNTVYLQMNSLIPEDTAVYYCFDVNTDVLSRVYRGWGYYYWGQGTQVTVSS	low polyreactivity
QVQLVESGGGLVQAGGSLRLSCAASGSTFFLYSMGWYRPAPGKERELVAAINYIGGTYYADSVKGRFTISRDNAKNTVYLQMNSLKPEDTAVYYCAASYVGTIAGMDYWGQGTQVTVSS	low polyreactivity
QDQLVESGGGLVQAGGSLRLSCASSGSIFSYNAMGWYRQAPGKEMELVAAISRGGSTYYADSVKGRFTISRDNAKNTVYLQMNSLKPDDTAVYYCAAYVYQLSYPAFEEGYWGQGTQVTVSS	low polyreactivity
QVQLVESGGGLVQAGGSLRLSCAASGLIFGYNAMGWYRQAPGKEREFVAGISSSGVSTYYADSVKGRFTISRDNAKNTVYLQMNSLKPEDTAVYYCAADTVDLEFDYWGQGTQVTVSS	low polyreactivity
QVQLVESGGGLVQAGGSLRLSGAASGSTCYFNAQGWFRPAPGKERELVAAITYSGGSTYYADSVKGRFTISRDNAKNTVYLQLNSLKPEDTAVYYCAAQWRRHSTRSRYYYWGQGTQVTVSS	high polyreactivity
QVQLVESGGGLVQAGGSLRLSCAASGCTFQTYAMGWYRQAPGKERELVAGITAGGSTNYADSVKGRFSISRDNAKNTVYLQMNSLKPEDTAVYYCAVRQISQTSDHRLQYDYWGQGTQVNVSS	low polyreactivity
QVQLLESGGGLVQAGGSLRLSCAASGRIFDPYAMGWYRQAPGKERELVAAITGSGDGTYYADTVKGRYTISRYNAKNTVYLQMNRLKPEDTAVYYCAAVGRDRFVIHDYWGQGTQVTVSS	low polyreactivity
QVQLVESGGGLVQAGGSLRLSCAASGSNFLKNAMGWYRQAPGKERELVAAITSGGSTYYADSVKGRFTISRDNAKNTVYLQMNSLKPEDTAVYYCADETSPSWYTWVTYDYWGQGTQVTVSS	high polyreactivity
QVQLVESGGGLVQAGGSLRLSCAASGRIFRGNVMGWYRQAPGKERELVAVIRSSSGRTYYADSVKGRFTISRDNAKNTVYLQMNSLKPEDTAVYYCAAKSVWGQGTQVTVSS	high polyreactivity

Sequence	polyreactivity (PSR sort gate)
QVPRVESGGGLVQAGGSLRLSCAASGFTFRFYDMGWYRQARGNERELVAAISWSGTSTYYADSVKGRFTISRDNAKNTVYLQMNSLKPEETAVYYCAADIIGYEFDYWGQGTQVTVSS	high polyreactivity
QVQLVESGGGLVQAGGSLRLSCAASGRTFNYYNMGWYRQAPGKERELVAAISRGGTTYYADSVKGRFTISRDNAKKTVYLQMNSLKPEDTAVYYCAVAYAPRVQTVWSYVSGSTYYSWGQGTQVTVSS	high polyreactivity
QVQLVESGGGLVQAGGSLRLSCADSGRTFRIYAMGWYRQAPGKERELVARITKRAGSTYYADSVKGRFTISRDNAKNTVYLQMNSLKPEDTAVYYCAATHYQWRGRYGYWRQGTQVTVSS	high polyreactivity
QVQLVESGGGLVQAGGSLRLSCAASGFTYHVYAMGWYRQAPGKERELVAAISTGDDTTFYADSVKGRFTISRDNAKNTVYLQMNSLKPEDSAVYYCAAEYQVEYYYTTNFLTTYDYWGQGTQVTVSS	low polyreactivity
QVQLVESGGGLVQAGGSLRLSCAASGFTFRKYAMGWYRQAPGKESELVAAISWSGGSTYYADSVKGRFTISRDNAKNTVYLQMNSMKPEDTAVYYCAAPHWSPYDYWGQGTQVTVSS	high polyreactivity
QVQLVESAGGLVQAGGSLRLSCAASGRIFSFNAMGWDRQAPGKERELVATIRTDGTTNYADSVKGRFTISRDNAKNTVYLQMNSLKPEDTAVYYCATDSGWSTYDYWGQGTQVTVSS	high polyreactivity
QVQLVESGGGLVQAGGSLRLSCAASGSTFQPYAMGWYREAPGKERELVATITWRGGRTYYADSVKGRFTISRDNAKYTVYLQMNSLKPEDTAVYYCNVAYRGFRYYYWGQGTQVNVSS	high polyreactivity
QVQLVESGAGLVQAGGSLRLSCAPSGNIFSVYAMGWYRHAPGKARELVARITKTVGGTYYADSVKGRFTISRDNAKNTVYLQMNSLKPEDTAVYYCAARVWTGNGGSKGAYDYWGQGTQVTVSS	high polyreactivity
QVQLVESGGGLVQAGGSLRLSCAASGSIFYKYMGWYRQAPGKERELVAAISWSGGRTYYADSVKGRFTISRDNAKNTVYLQMNSLKPEDTAVYYCNRVVLWRIGDKAFEYWGQGTQVTVSS	high polyreactivity
QVQLVESGGRLVQAGGILRLSCAASGRIFAYYAMGWYRHSPGKERELVAAINWSGDGTNYADSVKGRFTISRDNEKNSVYLQMNSLKPEDTAVYYWNADWTSYGFGTRLDYWGQGTQVTVSS	low polyreactivity
QVQLVESGGGLVQAGGSLRISCAASGFTVWGYAMGWYRQAPGKERELVAGITTRGGSTYYADSVKGRFTISRDNAKNTVYLQMNSLKPEDTAVYYCNVVSSTRTYRYDYWGQGTQVTVSS	high polyreactivity
QVQLVESGGGLVQAGGSLRLSCAASGRTFGYNAMGWYRQAPGKERELVATISSSTVSTSYADSVKGRFTISRDNAKNTVYLQMNSLKPEDPAVYYCNARSRVSPTERVPYDSWGQGTQVTVSS	low polyreactivity
QVQLVESGGGLVQAGGSLRLSCAASGFISPSNAMGWYRQAPGKERELVAAIRSSDGSTYYADSVKGRFTISRDNAKNTVYLQMNSLKPEDTAVYYCAAGGSYYRDDYWGQGTQVTVSS	low polyreactivity
QVQLVESGGGLVQAGGSLRLSCAASGLIFGYYAMGWYRQAPGKEREFVAAIDGSDGTTYYADSVKGRFTISRDNAKNTVYLQMTSQKPEDTAVYYCNADSSSYSSDLGYDYWGQGTQVTVSS	low polyreactivity
QVQLVESGGGLVQAGGSLRLTCDASGSIFSVYAMGWYRQAPGKERELVAAITSSGGITYYADSVKGRFTISRDNSKNTVYLQMNSLKPEDTAVYYCATDRVLHYWVLSMDYWGQGTQVTVSS	low polyreactivity
QVQLVESGGGLVQAGGSLRLSCAASGRIFYPYAMGWYRQAPGKERELVASITWRGGSTYYADSVKGRFTISRDNAKNTVYLQMNSLKPEDTAVYYCAAVPYSYTYVYLSHYDYWGQGTQVTVSS	low polyreactivity
QVQLVESGGGLVQAGGSLRLSCAASGSTFFANTMGWYRQAPGKERELVAAIRDSGGSTYYADSVKGRFTISRDNSKNTVYLQMNSLKPEDTAVYYCSARYLVYGYPYRFYYWGQGTQVTVSS	high polyreactivity
QVQLVESGGGIVQAGGSLRLSCAASGFTILRYVMGWYRQAPGKERELVAAISYSGGRTYYADSVKGRFTISRDNAKHTVYLHMNSLKPEDPAVYYCAAARPFGYPPVMKYDYWGQVTQVTVSS	high polyreactivity
QVQLVESGGGLVQAGGSLRLSCAASGRTFEDYTMGWYRQAPGKERELVAAITGGGSTNYADSVKGRFTISRDNAKNTVYLQMNSLKPEDTAVYYCAARRKGGHISYGYDYWGQGTQVTVSS	high polyreactivity
QVQLVESGGGLVQAGGSLRLSCAASGFIFPGNVMGWYRQAPGKERELVAAITWSGGSTYYADSVKGRFTISRDNAKNTVYLQMNSLKPEDTAVYYCNADAFSFFGYLERMEYWGQGTLVTVSS	low polyreactivity
QVQLVESGGGLVQAGGSLRLSCADSGSIFGYNAMGWYRQAPGKEREFVAAISWSGGRTYYADSVKGRFTISRDNAKNTVYLQMNSLKPEDTAVYYCAAPSRPAPRFDYWGQGTQVTVSS	low polyreactivity
